# Experimental data as given in patent publication US20180155451A1 (published 2018).
# T1: FcγRIIa R (FcγRIIa, allotype R, Arg at position 131), extracellular domain with C-terminal His tag (human, UniProt P12318 34-217)
# T1 construct: extracellular domain; soluble receptor used as Biacore analyte; also called 2aR; FcgRIIa R
# T1 sequence (looked up): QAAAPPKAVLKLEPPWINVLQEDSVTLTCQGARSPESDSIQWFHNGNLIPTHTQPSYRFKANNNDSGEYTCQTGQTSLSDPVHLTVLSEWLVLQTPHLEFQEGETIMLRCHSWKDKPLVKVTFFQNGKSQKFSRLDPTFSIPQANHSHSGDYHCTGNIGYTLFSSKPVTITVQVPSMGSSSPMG
# T2: FcγRIIb, extracellular domain with C-terminal His tag (human, UniProt P31994 43-217)
# T2 construct: extracellular domain; soluble receptor used as Biacore analyte; also called 2b; FcgRIIb
# T2 sequence (looked up): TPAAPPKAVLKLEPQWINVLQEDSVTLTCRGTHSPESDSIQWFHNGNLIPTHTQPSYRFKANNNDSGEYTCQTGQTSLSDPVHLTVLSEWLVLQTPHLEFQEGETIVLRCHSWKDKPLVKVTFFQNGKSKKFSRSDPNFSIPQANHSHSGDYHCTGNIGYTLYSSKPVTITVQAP
# T3: FcγRIIb extracellular domain with C-terminal His tag (human, UniProt P31994 43-217)
# T3 construct: extracellular domain; also called FcgRIIb; 2b; not shown: His tag attached to the C terminus
# T3 sequence (looked up): T2 sequence (looked up)
# B1: GpH7-A5/GpH7-B3 variant A327_12R/GpL16-k0 (antibody, human IgG1, kappa)
# heavy 1: not shown
# heavy 2: not shown
# light: DIVMTQSPLSLPVTPGEPASISCQASESLVHSNRNTYLHWYLQKPGQSPQLLIYKVSNRFSGVPDRFSGSGSGTDFTLKISRVEAEDVGVYYCSQNTHVPPTFGQGTKVEIERTVAAPSVFIFPPSDEQLKSGTASVVCLLNNFYPREAKVQWKVDNALQSGNSQESVTEQDSKDSTYSLSSTLTLSKADYEKHKVYACEVTHQGLSSPVTKSFNRGEC
# notes: position is EU numbering; also called He Ab
# B2: GpH7-A5/GpH7-B3 variant L328_12R/GpL16-k0 (antibody, human IgG1, kappa)
# heavy 1: not shown
# heavy 2: not shown
# light: B1 light
# notes: as for B1
# B3: GpH7-A5/GpH7-B3 variant L328_11K/GpL16-k0 (antibody, human IgG1, kappa)
# heavy 1: not shown
# heavy 2: not shown
# light: B1 light
# notes: as for B1
# B4: heterodimerized antibody GpH7-A5/GpH7-B3 variant A327_01G/GpL16-k0 (antibody, human IgG1, kappa)
# heavy 1: not shown
# heavy 2: not shown
# light: B1 light
# notes: He Ab: anti-glypican-3 IgG1, alteration in one H chain only; also called He Ab
# B5: heterodimerized antibody GpH7-A5/GpH7-B3 variant S239_03V/GpL16-k0 (antibody, human IgG1, kappa)
# heavy 1: not shown
# heavy 2: not shown
# light: B1 light
# notes: as for B4
# B6: heterodimerized antibody GpH7-A5/GpH7-B3 variant L328_19Q/GpL16-k0 (antibody, human IgG1, kappa)
# heavy 1: not shown
# heavy 2: not shown
# light: B1 light
# notes: as for B4
# B7: heterodimerized antibody GpH7-A5/GpH7-B3 variant I332_02A/GpL16-k0 (antibody, human IgG1, kappa)
# heavy 1: not shown
# heavy 2: not shown
# light: B1 light
# notes: as for B4
# B8: heterodimerized antibody GpH7-A5/GpH7-B3 variant Y300_19Q/GpL16-k0 (antibody, human IgG1, kappa)
# heavy 1: not shown
# heavy 2: not shown
# light: B1 light
# notes: as for B4
# B9: heterodimerized antibody GpH7-A5/GpH7-B3 variant S267_11K/GpL16-k0 (antibody, human IgG1, kappa)
# heavy 1: not shown
# heavy 2: not shown
# light: B1 light
# notes: as for B4
# B10: heterodimerized antibody GpH7-A5/GpH7-B3 variant V266_05P/GpL16-k0 (antibody, human IgG1, kappa)
# heavy 1: not shown
# heavy 2: not shown
# light: B1 light
# notes: as for B4
# B11: heterodimerized antibody GpH7-A5/GpH7-B3 variant V266_11K/GpL16-k0 (antibody, human IgG1, kappa)
# heavy 1: not shown
# heavy 2: not shown
# light: B1 light
# notes: as for B4
# B12: heterodimerized antibody GpH7-A5/GpH7-B3 variant S267_12R/GpL16-k0 (antibody, human IgG1, kappa)
# heavy 1: not shown
# heavy 2: not shown
# light: B1 light
# notes: as for B4
# B13: GpH7-A5/GpH7-B3 variant N325_01G/GpL16-k0 (antibody, human IgG1, kappa)
# heavy 1: not shown
# heavy 2: not shown
# light: B1 light
# notes: Heterodimerized IgG1; alteration in one H chain only; also called He Ab
# B14: GpH7-A5/GpH7-B3 variant A327_07I/GpL16-k0 (antibody, human IgG1, kappa)
# heavy 1: not shown
# heavy 2: not shown
# light: B1 light
# notes: as for B13
# B15: GpH7-A5/GpH7-B3 variant A327_09D/GpL16-k0 (antibody, human IgG1, kappa)
# heavy 1: not shown
# heavy 2: not shown
# light: B1 light
# notes: as for B13
# B16: GpH7-A5/GpH7-B3 variant A327_04F/GpL16-k0 (antibody, human IgG1, kappa)
# heavy 1: not shown
# heavy 2: not shown
# light: B1 light
# notes: as for B13
# Target: T4, FcγRIIIa extracellular domain with C-terminal His tag (human, UniProt P08637 17-208)
# T4 construct: extracellular domain; also called FcgRIIIa; 3a; not shown: His tag at the C terminus
# Assay: SPR (Biacore); ratio of He/Con_3a (FcγRIIIa) to He/Con_2b (FcγRIIb)
# Experimental: (§1) The heterodimerized antibodies He Abs in which one of the H chains was introduced with an alteration were assayed for their binding activities to each activating FcγR and inhibitory FcγR according to the method described in Example 4. […] The activating FcγRs in FIGS. 26, 27, 28, and 29 are FcγRIa, FcγRIIa (R), FcγRIIa (H), and FcγRIIIa, respectively.
# T4 sequence (P08637 17-208): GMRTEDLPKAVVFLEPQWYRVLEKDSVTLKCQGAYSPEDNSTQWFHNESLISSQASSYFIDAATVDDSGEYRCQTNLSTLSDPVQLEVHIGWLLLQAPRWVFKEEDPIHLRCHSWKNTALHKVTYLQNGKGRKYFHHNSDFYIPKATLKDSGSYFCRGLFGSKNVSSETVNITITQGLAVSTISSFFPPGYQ
# (§2) Analysis of interaction between objective antibody and the FcγR was carried out using Biacore T100 (GE Healthcare). HBS-EP+ (GE Healthcare) was used as the running buffer, and the measurement temperature was set to 25° C. Chips produced by immobilizing the antigen peptide by the amine coupling method to a Series S Sencor Chip CM5 (GE Healthcare), or alternatively, chips produced by allowing preliminarily biotinylated antigen peptides to interact with and immobilize onto a Series S Sensor Chip SA (certified) (GE Healthcare) were used. Antibodies of interest were captured onto an antigen peptide-immobilized chip, and allowed to interact to each FcγR diluted with running buffer. To regenerate and repeatedly use the chip, the antibodies captured on the chip were washed off by reacting 10 mM glycine-HCl, pH 1.5.
row,He_3a/2b (IIIa/IIb) [ratio],Binder
1,2.15,B1
2,3.53,B2
3,4.46,B3

# Target: T4, FcγRIIIa extracellular domain with …
# Assay: SPR (Biacore), antibody captured, FcγR as analyte; He Ab binding / GpH7-A5/GpH7-B3/GpL16-k0 binding x 100
# Experimental: as §1, §2
row,He/Con_3a (IIIa binding),Binder
1,"19.3 relative, control = 100",B1
2,"32.7 relative, control = 100",B2
3,"33.5 relative, control = 100",B3

# Target: T1, FcγRIIa R (FcγRIIa, allotype R, Arg at …)
# Assay: Biacore SPR; binding relative to GpH7-A5/GpH7-B3/GpL16-k0 (=100)
# Experimental: as §1, §2
row,He/Con_2aR (IIaR binding),Binder
1,98.2 % of control,B4
2,99.9 % of control,B5
3,89.3 % of control,B6
4,97.6 % of control,B7
5,99.7 % of control,B8

# Target: T2, FcγRIIb, extracellular domain with …
# Assay: as above
# Experimental: as §1, §2
row,He/Con_2b (IIb binding),Binder
1,12.2 % of control,B9
2,116 % of control,B4
3,0.4 % of control,B10
4,1 % of control,B11
5,11.3 % of control,B12
6,108 % of control,B5
7,105 % of control,B6
8,103 % of control,B7
9,108 % of control,B8

# Target: T5, FcγRIIIa extracellular domain with C-terminal His tag (human, UniProt P08637 17-208)
# T5 construct: extracellular domain; also called FcgRIIIa; 3a; not shown: His tag attached to the C terminus
# Assay: SPR (Biacore); He/Con_3a divided by He/Con_2b (reference: binding to FcγRIIb)
# Experimental: as §2
# (§3) The FcγR-binding activity of each antibody was assessed primarily using as an indicator the FcγR-binding activity and dissociation constant for FcγR.
# T5 sequence (P08637 17-208): as above
row,He_3a/2b (IIIa/IIb) [ratio],Binder
1,0.28,B13
2,0.33,B14
3,0.49,B15
4,0.72,B16

# Target: T3, FcγRIIb extracellular domain with …
# Assay: SPR (Biacore), relative binding
# Experimental: as §2, §3
row,He/Con_2b (IIb binding),Binder
1,101 % of GpH7-A5/GpH7-B3/GpL16-k0 (=100),B13
2,127 % of GpH7-A5/GpH7-B3/GpL16-k0 (=100),B14
3,172 % of GpH7-A5/GpH7-B3/GpL16-k0 (=100),B15
4,63.7 % of GpH7-A5/GpH7-B3/GpL16-k0 (=100),B16

# Target: T5, FcγRIIIa extracellular domain with …
# Assay: SPR (Biacore), relative binding
# Experimental: as §2, §3
row,He/Con_3a (IIIa binding),Binder
1,28 % of GpH7-A5/GpH7-B3/GpL16-k0 (=100),B13
2,42.4 % of GpH7-A5/GpH7-B3/GpL16-k0 (=100),B14
3,83.7 % of GpH7-A5/GpH7-B3/GpL16-k0 (=100),B15
4,46.2 % of GpH7-A5/GpH7-B3/GpL16-k0 (=100),B16
